4 molecules from PMC10018365, “Cryo-EM structure of the fully assembled Elongator complex” (Nucleic Acids Research, 2023) can be followed below.

Sequences and labels used below:
B1: Saccharomyces cerevisiae Elp456 subcomplex (hetero-hexameric ring) (complex)
chain 1: MSFRKRGEILNDRGSGLRGPLLRGPPRTSSTPLRTGNRRAPGNVPLSDTTARLKKLNIADESKTKMGLDSSHVGVRPSPATSQPTTSTGSADLDSILGHMGLPLGNSVLVEEQSTTEFHSILGKLFAAQGIVHNRISDSSADKTRNGDTHVIVLSLNQMFAKELPGIYKGSRKQMKKNLISEEESKVTVQNLNETQRSTPSRYKDLKIAWKYKLADEKRLGSPDRDDIQQNSEYKDYNHQFDITTRLMPAPIASELTFIAPTQPVSTILSQIEQTIKRNDKKLIRIVIPSLLHPAMYPPKMFESSEIIGLMHGVRSLVKKYYERVVLFASISIDIITPPLLVLLRNMFDSVINLEPFNQEMTEFLERVYKSQPGKIQHGLVHILKLPVFTDRGEMRVLKSEWAFKNGRKKFEIEQWGIPVDDAEGSAASEQSHSHSHSDEISHNIPAKKTKISLDY
chain 2: MASSSHNPVILLKRILSLTESSPFILCLDSIAQTSYKLIQEFVHQSKSKGNEYPIVYISFETVNKPSYCTQFIDATQMDFVHLVKQIISYLPAATATQAKKHMVIIDSLNYISTEYITRFLSEIASPHCTMVATYHKDIKDENRTVIPDWNNNYPDKLTLLQFMATTIVDIDVVLTGTLDTEEVSELLNEFRIPRGLNNDIFQLRLVNKRKSGRSLEYDFIVNSNTHEYELLSTTKQEEESSSNGLETPEMLQGLTTFNLGTSNKQKLAKDQVALPFLEAQSFGQGGAIVYEYEKDDDYDEEDPYEDPF
chain 3: MGSVQRQDLVLFSDQSVLPAHFFQDSNSHNLFFITHQSCTQPLWMINALVETHVLGSPSSLNESSSSMLPSSTRSHAVLASFIHEQNYFTNSLNKLKIPSNNYNVLDFLSDFIVNNIHNKPRDKILSDVLAKFSAAIQNNPTDTIVIIEQPELLLSLVSGLTCSELNNKFITPLLRQCKVLIIVSNSDIFNIDEYDASVHSSNLQNFYKSSFIKSMINLNLNPLKTGFAKDVTGSLHVCRGGAPIATSNTSLHVVENEYLYLNEKESTKLFYR
notes: Elp4, S. cerevisiae, full-length ORF; Elp5, S. cerevisiae, full-length ORF; Elp6, S. cerevisiae, full-length ORF; Symmetric dimer of trimers; also called ScElp456; yeast Elp456; source: S. cerevisiae DS1-2b, overexpressed, purified with ScElongator (IgG Sepharose with TEV elution, StrepTrap, Superose 6); free rings seen in one data set; not shown: protein A (Staphylococcus aureus), C-terminal, …
B2: Saccharomyces cerevisiae Elp6 (natural protein, UniProt Q04868 1-273, looked up)
chain: B1 chain 3
notes: Elp6, S. cerevisiae, full-length ORF; also called ScElp6; source: S. cerevisiae DS1-2b, overexpressed, purified within ScElongator; not shown: protein A (Staphylococcus aureus), C-terminal, cleaved
B3: Saccharomyces cerevisiae Elp4 (natural protein, UniProt Q02884 1-456, looked up)
chain: B1 chain 1
notes: Elp4, S. cerevisiae, full-length ORF; also called ScElp4; source: S. cerevisiae DS1-2b, overexpressed, purified within ScElongator
B4: Saccharomyces cerevisiae Elp5 (natural protein, UniProt P38874 1-309, looked up)
chain: B1 chain 2
notes: Elp5, S. cerevisiae, full-length ORF; also called ScElp5; source: S. cerevisiae DS1-2b, overexpressed, purified within ScElongator

Holding throughout (details): both partners purified
In assay [1] the target is T1, Saccharomyces cerevisiae Elp123 subcomplex (Saccharomyces cerevisiae, UniProt Q06706 1-1349; P42935 1-788; Q02908 1-557).
T1 construct: Elp1, S. cerevisiae, full-length ORF; Elp2, S. cerevisiae, full-length ORF; Elp3, S. cerevisiae, full-length ORF; also called ScElp123; yeast Elp123; not shown: Twin-Strep-tag, C-terminal, kept; copies: 2 + 2 + 2
Nature of the assay: cryo-EM structure; ScElongator purified from overexpressing yeast, native sample (4.35 Å) and BS3-stabilised sample (6.6 Å; two-lobed map 17.2 Å); sample buffer 20 mM HEPES pH 7.5, 100 mM NaCl, 3 mM DTT.

Assay [2] deals with B3. Nature of the assay: cryo-EM structure; free full-length ScElp456 rings found in one data set, 3.7 Å.
The target in assay [3] is B4. The assay is described as above.
Assay [4] has as its target T2, Saccharomyces cerevisiae Elp3 (Saccharomyces cerevisiae, UniProt Q02908 1-557).
T2 construct: Elp3, S. cerevisiae, full-length ORF; also called ScElp3; source: S. cerevisiae DS1-2b, overexpressed, purified within ScElongator; not shown: Twin-Strep-tag, C-terminal, kept
T2 sequence (looked up): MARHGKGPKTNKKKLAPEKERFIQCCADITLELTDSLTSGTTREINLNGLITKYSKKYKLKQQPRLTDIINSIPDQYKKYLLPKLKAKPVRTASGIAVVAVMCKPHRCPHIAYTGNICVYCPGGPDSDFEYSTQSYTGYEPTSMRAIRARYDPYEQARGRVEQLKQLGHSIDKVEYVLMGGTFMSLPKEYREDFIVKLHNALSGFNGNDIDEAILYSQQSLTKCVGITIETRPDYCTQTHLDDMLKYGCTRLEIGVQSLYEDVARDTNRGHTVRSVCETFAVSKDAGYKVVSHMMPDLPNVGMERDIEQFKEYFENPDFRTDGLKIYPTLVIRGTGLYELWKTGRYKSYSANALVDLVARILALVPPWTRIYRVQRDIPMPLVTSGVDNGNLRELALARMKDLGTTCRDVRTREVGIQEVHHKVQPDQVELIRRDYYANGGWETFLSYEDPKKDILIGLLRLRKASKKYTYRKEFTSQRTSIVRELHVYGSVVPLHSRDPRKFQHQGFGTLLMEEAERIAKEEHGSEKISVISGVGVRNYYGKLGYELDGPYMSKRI
Briefly: cryo-EM structure; ScElongator purified from overexpressing yeast, native sample (4.35 Å) and BS3-stabilised sample (6.6 Å; two-lobed map 17.2 Å); sample buffer 20 mM HEPES pH 7.5, 100 mM NaCl, 3 mM DTT.

The target in assay [5] is T3, Saccharomyces cerevisiae Elp1 (Saccharomyces cerevisiae, UniProt Q06706 1-1349).
T3 construct: Elp1, S. cerevisiae, full-length ORF; also called ScElp1; source: S. cerevisiae DS1-2b, overexpressed, purified within ScElongator
T3 sequence (looked up): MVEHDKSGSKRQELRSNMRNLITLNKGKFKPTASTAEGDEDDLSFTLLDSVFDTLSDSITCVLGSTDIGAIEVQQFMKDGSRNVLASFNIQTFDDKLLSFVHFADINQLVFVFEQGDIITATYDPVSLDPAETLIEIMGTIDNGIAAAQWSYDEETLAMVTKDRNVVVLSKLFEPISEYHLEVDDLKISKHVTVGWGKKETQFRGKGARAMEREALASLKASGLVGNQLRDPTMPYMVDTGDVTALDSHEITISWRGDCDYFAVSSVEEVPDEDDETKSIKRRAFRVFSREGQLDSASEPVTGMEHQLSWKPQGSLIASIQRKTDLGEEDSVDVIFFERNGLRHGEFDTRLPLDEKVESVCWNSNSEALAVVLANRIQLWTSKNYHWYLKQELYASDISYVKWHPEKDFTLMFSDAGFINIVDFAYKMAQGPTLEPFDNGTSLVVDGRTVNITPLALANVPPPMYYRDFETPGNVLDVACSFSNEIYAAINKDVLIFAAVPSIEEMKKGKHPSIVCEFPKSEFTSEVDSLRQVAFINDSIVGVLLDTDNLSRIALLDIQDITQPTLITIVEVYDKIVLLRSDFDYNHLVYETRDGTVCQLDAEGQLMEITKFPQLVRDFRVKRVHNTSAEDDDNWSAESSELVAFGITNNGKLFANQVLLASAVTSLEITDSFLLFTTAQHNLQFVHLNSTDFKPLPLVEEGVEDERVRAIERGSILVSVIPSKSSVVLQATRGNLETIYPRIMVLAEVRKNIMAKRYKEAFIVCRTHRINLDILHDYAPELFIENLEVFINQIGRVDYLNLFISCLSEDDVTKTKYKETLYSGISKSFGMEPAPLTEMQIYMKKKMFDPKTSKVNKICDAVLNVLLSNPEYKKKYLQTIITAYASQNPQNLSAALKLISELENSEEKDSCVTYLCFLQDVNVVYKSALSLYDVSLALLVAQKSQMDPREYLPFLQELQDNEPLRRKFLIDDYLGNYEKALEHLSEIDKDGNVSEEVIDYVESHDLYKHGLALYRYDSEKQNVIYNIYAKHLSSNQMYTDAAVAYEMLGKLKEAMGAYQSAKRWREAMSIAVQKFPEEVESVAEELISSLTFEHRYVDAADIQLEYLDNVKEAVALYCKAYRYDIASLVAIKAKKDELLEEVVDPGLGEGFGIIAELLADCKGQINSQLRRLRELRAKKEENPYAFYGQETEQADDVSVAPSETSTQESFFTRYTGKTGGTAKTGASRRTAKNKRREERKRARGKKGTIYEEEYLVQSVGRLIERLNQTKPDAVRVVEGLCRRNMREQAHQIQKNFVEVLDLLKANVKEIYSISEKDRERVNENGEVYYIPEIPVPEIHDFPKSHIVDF
The assay is described as above.

T1 sequence (P42935 whole entry, one chain of several): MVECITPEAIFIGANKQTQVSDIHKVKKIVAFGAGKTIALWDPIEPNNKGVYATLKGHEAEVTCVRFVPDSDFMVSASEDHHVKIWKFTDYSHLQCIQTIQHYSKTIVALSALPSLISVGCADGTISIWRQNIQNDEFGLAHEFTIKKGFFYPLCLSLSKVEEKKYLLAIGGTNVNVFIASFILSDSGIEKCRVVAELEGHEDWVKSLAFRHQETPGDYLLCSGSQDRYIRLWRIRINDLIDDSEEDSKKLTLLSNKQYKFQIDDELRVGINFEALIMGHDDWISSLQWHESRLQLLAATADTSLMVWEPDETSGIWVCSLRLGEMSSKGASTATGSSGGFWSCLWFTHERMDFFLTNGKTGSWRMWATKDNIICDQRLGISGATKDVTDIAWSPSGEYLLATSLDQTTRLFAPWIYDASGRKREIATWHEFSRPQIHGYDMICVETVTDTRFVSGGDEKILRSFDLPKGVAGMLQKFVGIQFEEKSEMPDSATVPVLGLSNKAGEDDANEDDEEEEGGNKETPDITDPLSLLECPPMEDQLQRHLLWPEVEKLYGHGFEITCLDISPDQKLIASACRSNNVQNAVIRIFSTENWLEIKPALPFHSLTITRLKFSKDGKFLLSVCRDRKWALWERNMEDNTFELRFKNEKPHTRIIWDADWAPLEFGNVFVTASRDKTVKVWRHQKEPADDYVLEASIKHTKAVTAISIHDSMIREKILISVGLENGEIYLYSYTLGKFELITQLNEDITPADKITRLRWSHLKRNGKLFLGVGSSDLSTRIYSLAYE

As for B1, in assay [1], the binding result was “binds”.
Consider B2, for which the binding result in assay [2], in assay [3] and in assay [4] was “binds” throughout.
B3: the binding result in assay [5] and in assay [4] was “binds” in each case.
Turning to B4, the binding result in assay [2] and in assay [5] was “binds” in each case.
